Data: US20190276509A1 (Memorial Sloan Kettering, published 2019)
No end group written: not given here.

Legend:
[1] = target: purified recombinant CBP KIX domain (Homo sapiens (Human)) (UniProt Q92793); assay: microscale thermophoresis (MST), FITC-peptide fixed, purified KIX titrated, n=3
[2] = target: purified recombinant CBP KIX domain (Homo sapiens (Human)) (UniProt Q92793); assay: microscale thermophoresis (MST), FITC-peptide at fixed concentration, purified KIX titrated; concentration read is that of KIX
[3] = target: T1, purified recombinant CBP KIX domain (Homo sapiens (Human), UniProt Q92793 587-666); assay: microscale thermophoresis (MST), FITC-peptide at fixed concentration, purified KIX titrated
T1 construct: Linker residues may remain after the thrombin cut; also called purified KIX

[4] = target: T1, purified recombinant CBP KIX domain; assay: microscale thermophoresis (MST), FITC-peptide fixed, purified KIX titrated, n=3
[5] = target: T1, purified recombinant CBP KIX domain; assay: microscale thermophoresis (MST), FITC-peptide at fixed concentration, purified KIX titrated; concentration read is that of KIX

T1 sequence (Q92793 587-666 limits assumed): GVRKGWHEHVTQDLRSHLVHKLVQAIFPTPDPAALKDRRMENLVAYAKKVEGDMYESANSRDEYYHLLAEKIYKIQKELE
Chain of purified recombinant CBP KIX domain (Homo sapiens (Human)) (Q92793 587-666 limits assumed): as above

FITC-MYBMIM (FITC-conjugated D-amino acid retro-inverso peptide, D-aa)
Kd [1]: 25.4 µM | EC50 (read off the curve) [2]: 30 µM

B1: FITC-TAT (fluorescein-conjugated TAT peptide, FITC-AHA-YGRKKRRQRRR-NH2) (peptide)
peptide: YGRKKRRQRRR
modifications: not fully specified; N-terminal FITC-aminohexanoic acid (FITC-AHA); C-terminal amide; L-amino acids
binding result [3]: no binding (tested: about 50 uM KIX)

B2: FITC-MYB (FITC-conjugated L-amino acid peptide, L-aa) (peptide)
peptide: YGRKKRRQRRRGGKRIKELELLLMSTENELK-NH2
modifications: not fully specified (N-terminus); also: conjugated to FITC, site not given here, N-terminal acetyl
notes: It is uncertain whether the labelled peptide carried the TAT part; also called L-aa peptide
Kd [4]: 5.25 µM | EC50 (read off the curve) [5]: ~5 µM
